Test results published in US20230357428A1.
Several values for one entry are separate records, joined by “and”; a condition that tells them apart may be missing. Identical values can stand only once.

Experiments:
[1] = target: mix of HLA-A*02/SimPep tetramers (peptides SEQ ID NO: 51 to 59); test: yeast display, SimPep tetramer mix, 10 nM each
[2] = target: mix of HLA-A*02/SimPep tetramers (peptides SEQ ID NO: 51 to 59); test: yeast display, flow cytometry; 10 nM PRAME-004 monomer (x), SimPep tetramer mix 10 nM each (y)

- yeast cells stained positive [1]: 3.3% and 2.5%
- % cells, upper left quadrant (monomer-, SimPep tetramers+) [2]: 3%
- % cells, upper right quadrant (monomer+, SimPep tetramers+) [2]: 0.8%
B1: stabilized scTCR R11P3D3SD (TCR)
chain: ILNVEQSPQSLHVQEGDSTNFTCSFPSSNFYNLHWYRKETAKSPEFLFYMTSNGDEKKKGRISATLNTKEGYSYLYITDSQPEDSATYLCALYNNNDMRFGAGTRLTVKPGGGGSGGGGSGGGGSGGGGSGGGGSGVIQSPRHLVTEMGQEVTLRCKPISGHNSLFWYRETPMQGLELLIYFNNNEPIDDSGMPEDRFSAKMPNASFSTLKIQPSEPRDSAVYFCASSPGSTDTQYFGPGTRLTVL
